Measurements: patent US20230093169A1, “COMBINATIONS OF ANTIBODY CONSTRUCTS AND INHIBITORS OF CYTOKINE RELEASE SYNDROME AND USES THEREOF” (AMGEN RESEARCH (MUNCH) GMBH, priority 2020, published 2023)

Columns and labels:
[1] = tested on: VCAM-1 expression on CD31+HUVEC; assay: Blinatumumab VCAM assay: VCAM-1 on CD31+ HUVEC in co-cultures with T cells and NALM-6; assay type: cell-based, human; conditions: isolated T cells and NALM-6
Method: FIG. 7. VCAM-1 Expression on HUVEC in AMG 103 Co-culture Assays: VCAM-1 expression by flow cytometry. […] expression levels are expressed as Median Fluorescence Intensity (MFI). VCAM-1 expressing HUVEC are expressed as percentage of CD31+HUVEC. Error bars indicate the standard error of the mean of duplicate measurements. Two PBMC donors were used in this experiment.
The effect of blinatumomab (AMG 103) on T cell activation and the induction of VCAM-1 on endothelial cells was analyzed in co-cultures of HUVEC, isolated T cells and CD19-expressing NALM-6 target cells. VCAM-1 expression on CD31+HUVEC was analyzed by flow cytometry.

[2] = tested on: MCP-1 release in HUVEC co-cultured with CD19-expressing NALM-6 cells and human PBMC; assay: BiTE-induced MCP-1 release in co-culture of HUVEC, NALM-6 cells and human PBMC, with or without etanercept; assay type: cell-based; conditions: HUVEC + NALM-6 + human PBMC; after 2 and 5 hours
From the text: FIG. 6. AMG 103-mediated MCP-1 Secretion: MCP-1 concentrations in cell culture supernatants were quantified by the BD Cytometric CBA human MCP-1 Flex Set. Error bars in both graphs indicate the standard error of the mean of duplicate measurements.
Human umbilical vein endothelial cells (HUVEC) were co-cultured with CD19-expressing NALM-6 cells and human PBMC and increasing concentrations of BiTE® antibody construct blinatumomab (AMG 103) against CD19 in the absence or presence of etanercept. MCP-1 concentrations were determined with the BD Cytometric CBA human MCP-1 Flex set system (BD, Germany after 2 and 5 hours, respectively according to the manufacturer's instructions and are shown in FIG. 6.

[3] = molecular target: T1, TNF-α (Homo sapiens, UniProt P01375); assay: Etanercept prophylaxis for PSMA-targeting BiTE-related CRS in humans; assay type: in vivo
T1 construct: endogenous in cells; host or cells: human subjects (clinical cohort), in vivo
Method: Etanercept premedication occurred within two days before BiTE administration to assess whether prophylaxis with the TNF-α inhibitor decreases the frequency and severity of CRS without compromising the efficacy of the BiTE. In an initial cohort of 6 to 8 subjects, the PSMA-targeting BiTE is administered. In addition to dexamethasone prophylaxis, subjects in the cohort received prophylaxis with etanercept (50 mg subcutaneously [SC]) two days prior to each dose of PSMA-targeting BiTE in the first administration cycle.
Subject incidence of safety events, including dose-limiting toxicities (DLTs), serious adverse events (SAEs), and adverse events leading to treatment discontinuation or dose reduction, will be reviewed when at least 3 DLT-evaluable subjects complete the DLT window. Subjects receiving three individual increasing doses of PSMA-targeting BiTE with etanercept prophylaxis experienced 1 DLT/SAE (grade 3 (G3) thrombocytopenia), 1 SAE (Grade 3 (G3) Afib), 0 dose reductions, 1 discontinuation (tolerability), CRS events in cycle 1: 4 grade 2 (G2), no grade 3/4 (G3/4). […] In the latter group 1 DLT/SAE (G3 Hypoacusis), 2 SAE (grade 3 (G3) Pruritus, grade 2/3 (G2/G3) CRS), 2 dose reductions, 2 discontinuations (disease progression), and CRS events in cycle 1: 4 grade 1 (G1), 7 grade 2 (G2), 4 grade 3 (G3) were observed. In the etanercept prophylaxis group the PSMA-targeting BiTE was administered at the same dosages and frequency as in the group without etanercept prophylaxis.

[4] = cited from earlier work
[5] = subjects on PSMA-targeting BiTE with prophylaxis

T1 sequence (P01375 77-233 limits assumed): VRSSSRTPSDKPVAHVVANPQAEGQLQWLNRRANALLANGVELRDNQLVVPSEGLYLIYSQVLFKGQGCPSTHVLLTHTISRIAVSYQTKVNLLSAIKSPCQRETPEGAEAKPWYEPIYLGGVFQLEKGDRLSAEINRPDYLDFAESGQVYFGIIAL

AMG 103: BiTE® antibody construct against CD19
VCAM-1 expression on CD31+HUVEC ([1]; co-cultures of HUVEC, flow cytometry): up-regulated

etanercept
effect on BiTE molecule (AMG 103) induced MCP-1 release [2]: Blocked | sensitivity of AMG 103-induced VCAM-1 up-regulation to TNF blockade [1]: sensitive | CRS safety profile compared with no premedication or premedication with tocilizumab ([3]; PSMA-targeting BiTE at same dosages and frequency): improves CRS safety profile | CRS events in cycle 1, grade 2 (G2) [3, 5]: 4 | CRS events in cycle 1, grade 3/4 (G3/4) [3, 5]: no grade 3/4 | SAE [3, 5]: 1 | discontinuations [3, 5]: 1 | dose reductions [3, 5]: 0 | DLT/SAE ([3]; subjects on PSMA-targeting BiTE with prophylaxis (etanercept 50 mg SC two days prior; tocilizumab 8 mg/kg two hours before first dose)): 1 | half-life ([4]; mean±SD): 102 ± 30 h | time of maximum concentration [tmax], mean±SD ([4]; subcutaneous, slow absorption): 69 ± 34 h

tocilizumab: monoclonal antibody that competes with the binding of IL-6 to its receptor, IL-6R
CRS events in cycle 1, grade 1 (G1) ([3]; in vivo): 4 | CRS events in cycle 1, grade 2 (G2) ([3]; in vivo): 7 | CRS events in cycle 1, grade 3 (G3) ([3]; in vivo): 4 | SAE ([3]; in vivo): 2 | discontinuations ([3]; in vivo): 2 | dose reductions ([3]; in vivo): 2
